Laboratory results published in publication PMC7826282.

Target: 3xFLAG-FL-NOPCHAP1 (human) (UniProt Q8N5I9)
Test: co-IP

RL-NOP56-WT, sequence (O00567 whole entry): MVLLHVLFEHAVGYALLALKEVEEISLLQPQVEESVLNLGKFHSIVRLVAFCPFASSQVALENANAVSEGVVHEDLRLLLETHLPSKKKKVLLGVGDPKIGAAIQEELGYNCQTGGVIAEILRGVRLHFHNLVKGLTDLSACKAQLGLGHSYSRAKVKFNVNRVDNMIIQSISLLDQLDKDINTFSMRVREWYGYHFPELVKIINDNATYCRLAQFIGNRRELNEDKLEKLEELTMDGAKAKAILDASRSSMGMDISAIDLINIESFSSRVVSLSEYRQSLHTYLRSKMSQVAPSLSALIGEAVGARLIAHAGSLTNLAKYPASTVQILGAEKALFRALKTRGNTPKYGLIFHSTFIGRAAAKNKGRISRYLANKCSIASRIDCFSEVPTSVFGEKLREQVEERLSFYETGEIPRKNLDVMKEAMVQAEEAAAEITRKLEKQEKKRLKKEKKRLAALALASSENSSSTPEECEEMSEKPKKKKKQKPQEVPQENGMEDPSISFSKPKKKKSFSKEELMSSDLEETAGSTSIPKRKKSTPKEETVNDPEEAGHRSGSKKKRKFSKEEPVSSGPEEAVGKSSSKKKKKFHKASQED
3xFLAG-FL-NOPCHAP1 (human), sequence (Q8N5I9 whole entry): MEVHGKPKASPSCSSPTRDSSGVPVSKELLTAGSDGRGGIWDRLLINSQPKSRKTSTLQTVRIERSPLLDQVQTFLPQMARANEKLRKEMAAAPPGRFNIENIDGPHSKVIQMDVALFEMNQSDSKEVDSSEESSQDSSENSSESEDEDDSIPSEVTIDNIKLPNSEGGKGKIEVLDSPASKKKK

co-IP efficiency: < 0.05%
Substance: RL-NOP56-WT (from UniProt O00567 1-594) (natural protein)
